B1: Circadian clock oscillator protein KaiB (Thermosynechococcus elongatus (strain BP-1)), Q79V61 (parent)
chain: MAPLRKTYVLKLYVAGNTPNSVRALKTLNNILEKEFKGVYALKVIDVLKNPQLAEEDKILATPTLAKVLPPPVRRIIGDLSNREKVLIGLDLLYEEIGDQAEDDLGLE
partner: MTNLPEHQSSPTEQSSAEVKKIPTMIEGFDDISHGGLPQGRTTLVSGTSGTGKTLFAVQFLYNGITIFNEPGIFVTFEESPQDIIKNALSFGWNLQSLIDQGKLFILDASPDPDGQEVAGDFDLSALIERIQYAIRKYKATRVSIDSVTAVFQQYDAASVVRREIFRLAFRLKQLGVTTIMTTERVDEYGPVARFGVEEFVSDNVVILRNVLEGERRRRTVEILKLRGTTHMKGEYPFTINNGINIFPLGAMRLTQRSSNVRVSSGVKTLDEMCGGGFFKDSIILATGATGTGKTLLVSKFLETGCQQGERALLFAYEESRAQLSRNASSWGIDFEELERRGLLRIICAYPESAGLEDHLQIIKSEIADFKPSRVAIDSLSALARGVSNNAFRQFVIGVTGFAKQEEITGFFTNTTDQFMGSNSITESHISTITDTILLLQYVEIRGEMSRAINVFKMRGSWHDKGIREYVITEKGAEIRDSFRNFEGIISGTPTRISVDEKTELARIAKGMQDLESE
B2: Circadian clock oscillator protein KaiB (Thermosynechococcus elongatus (strain BP-1)), Q79V61 (parent)
chain: B1 chain
partner: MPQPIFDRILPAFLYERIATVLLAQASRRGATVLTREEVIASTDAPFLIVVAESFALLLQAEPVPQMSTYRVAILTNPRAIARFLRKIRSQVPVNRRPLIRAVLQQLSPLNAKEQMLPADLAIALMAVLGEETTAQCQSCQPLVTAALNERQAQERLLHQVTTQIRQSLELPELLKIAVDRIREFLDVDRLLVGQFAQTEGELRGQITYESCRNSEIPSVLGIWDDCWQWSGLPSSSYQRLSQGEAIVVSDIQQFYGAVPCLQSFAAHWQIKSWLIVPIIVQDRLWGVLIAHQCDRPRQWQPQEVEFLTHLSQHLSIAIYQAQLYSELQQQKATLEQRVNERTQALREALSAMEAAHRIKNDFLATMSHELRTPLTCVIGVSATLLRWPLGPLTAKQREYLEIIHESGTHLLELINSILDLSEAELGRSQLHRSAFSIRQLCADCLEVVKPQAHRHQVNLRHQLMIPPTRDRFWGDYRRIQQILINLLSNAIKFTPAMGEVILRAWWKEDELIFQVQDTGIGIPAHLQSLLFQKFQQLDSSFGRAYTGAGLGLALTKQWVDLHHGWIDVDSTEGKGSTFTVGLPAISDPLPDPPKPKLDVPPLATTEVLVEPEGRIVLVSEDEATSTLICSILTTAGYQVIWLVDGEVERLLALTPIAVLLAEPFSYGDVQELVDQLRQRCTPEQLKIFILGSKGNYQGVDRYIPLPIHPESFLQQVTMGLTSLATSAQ

Variants of: B1
Conditions: with kaic_thevb kaiC

effect of a mutation on the interaction	Variant
with no effect	MAPLRKTAVLKLYVAGNTPNSVRALKTLNNILEKEFKGVYALKVIDVLKNPQLAEEDKILATPTLAKVLPPPVRRIIGDLSNREKVLAGLDLLAEEIGDQAEDDLGLE [Y8A;I88A;Y94A]

Variants of: B2
Conditions: with cika_thevb cikA

effect of a mutation on the interaction	Variant
with no effect	MAPLRKTYVLKLYVAGNTPNSVRALKTLANILEKEFKGVYALKVIDVLKNPQLAEEDKILATPTLAKVLPPPVRRIIGDLSNREKVLIGLDLLYEEIGDQAEDDLGLE [N29A]
